According to patent EP0925358B1:

Each substance was assayed against human CXC Chemokine Receptor 3 (CXCR3) (human) (UniProt P49682) (assay: cell-based or functional assay).
Sequence of UniProt P49682 (P49682 whole entry, form in doubt): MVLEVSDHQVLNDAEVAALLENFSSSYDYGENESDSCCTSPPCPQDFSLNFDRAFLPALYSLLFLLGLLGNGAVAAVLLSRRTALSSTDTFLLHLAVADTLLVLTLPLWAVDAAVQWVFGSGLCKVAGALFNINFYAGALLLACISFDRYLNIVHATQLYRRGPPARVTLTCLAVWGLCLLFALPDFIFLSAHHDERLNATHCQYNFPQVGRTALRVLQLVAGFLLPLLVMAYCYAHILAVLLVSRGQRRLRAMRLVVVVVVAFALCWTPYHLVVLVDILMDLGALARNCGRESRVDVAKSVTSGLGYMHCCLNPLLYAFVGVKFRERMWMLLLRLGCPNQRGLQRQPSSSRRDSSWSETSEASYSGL

Substance | [Ca2+]i changes in IP-10/MigR transfectants [nM]
ENA78 (epithelial-derived neutrophil-activating peptide 78) (from UniProt P42830 37-114) (ligand) | > 100
GCP-2 (granulocyte chemotactic protein-2) (from UniProt P80162 38-114) (ligand) | > 100
GROα (from UniProt P09341 35-107) (ligand) | > 100
I309 (from UniProt P22362 24-96) (ligand) | > 100
IL-8 (from UniProt P10145 28-99) (ligand) | > 100
MCP-1 (monocyte chemotactic protein-1) (from UniProt P13500 24-99) (ligand) | > 100
MCP-2 (from UniProt P80075 24-99) (ligand) | > 100
MCP-3 (from UniProt P80098 24-99) (ligand) | > 100
MCP-4 (from UniProt Q99616 24-98) (ligand) | > 100
MIP-1α (macrophage inflammatory protein-1α) (from UniProt P10147 24-92) (ligand) | > 100
MIP-1β (from UniProt P13236 24-92) (ligand) | > 100
NAP-2 (neutrophil-activating protein-2) (from UniProt P02775 59-128) (ligand) | > 100
PF4 (platelet factor 4) (from UniProt P02776 32-101) (ligand) | > 100
RANTES (regulated on activation, normal T cell expressed and secreted) (from UniProt P13501 24-91) (ligand) | > 100
eotaxin (from UniProt P51671 24-97) (ligand) | > 100
lymphotactin (from UniProt P47992 22-114) (ligand) | > 100
